From US20240116985A1 (published 2024) come the findings set out here.

Starred links: 1 amine or outer side, 2 acyl side, 3 side chain; linkers in the order of their positions; H or OH if unused. Positions of bridges follow the written chain, without caps; N, C: chain ends. Non-standard residues stand in square brackets, D forms with d. Primed or numbered codes have the meaning given here. B5(16) = 2-amino-2-(pent-4-en-1-yl)hept-6-enoic acid = 2,2-bis(4-pentenyl)glycine (stitching residue), C=CCCCC(CCCC=C)(N[*:1])C(=O)[*:2]; B5(5) = 2,2-bis(4-pentenyl)glycine, 2-amino-2-(pent-4-en-1-yl)hept-6-enoic acid (stitching residue), C=CCCCC(CCCC=C)(N[*:1])C(=O)[*:2]; B5(9) = 2-amino-2-(pent-4-en-1-yl)hept-6-enoic acid (2,2-bis(4-pentenyl)glycine), C=CCCCC(CCCC=C)(N[*:1])C(=O)[*:2]; B5(19) = 2-amino-2-(pent-4-en-1-yl)hept-6-enoic acid (bis(4-pentenyl)glycine), C=CCCCC(CCCC=C)(N[*:1])C(=O)[*:2]; 23FF = 2,3-difluoro-L-phenylalanine, O=C([C@H](Cc1cccc(F)c1F)N[*:1])[*:2]; Phe(3,5-F2) = N[C@@H](Cc1cc(F)cc(F)c1)C(=O)O; d(βAsp) = O=C(O)[C@@H](CC(=O)[*:2])N[*:1]; βAsp = O=C(O)[C@H](CC(=O)[*:2])N[*:1]; Bta = N[C@@H](Cc1csc2ccccc12)C(=O)O; αAllylPro = C=CC[C@@]1(C(=O)O)CCCN1; S8 = C=CCCCCCC[C@](C)(N)C(=O)O

In assay [1] the target is T1, full-length beta-Catenin (Uniprot ID P35222) (Homo sapiens (Human), UniProt P35222 1-781).
T1 construct: also called bCat; B-Catenin
T1 sequence: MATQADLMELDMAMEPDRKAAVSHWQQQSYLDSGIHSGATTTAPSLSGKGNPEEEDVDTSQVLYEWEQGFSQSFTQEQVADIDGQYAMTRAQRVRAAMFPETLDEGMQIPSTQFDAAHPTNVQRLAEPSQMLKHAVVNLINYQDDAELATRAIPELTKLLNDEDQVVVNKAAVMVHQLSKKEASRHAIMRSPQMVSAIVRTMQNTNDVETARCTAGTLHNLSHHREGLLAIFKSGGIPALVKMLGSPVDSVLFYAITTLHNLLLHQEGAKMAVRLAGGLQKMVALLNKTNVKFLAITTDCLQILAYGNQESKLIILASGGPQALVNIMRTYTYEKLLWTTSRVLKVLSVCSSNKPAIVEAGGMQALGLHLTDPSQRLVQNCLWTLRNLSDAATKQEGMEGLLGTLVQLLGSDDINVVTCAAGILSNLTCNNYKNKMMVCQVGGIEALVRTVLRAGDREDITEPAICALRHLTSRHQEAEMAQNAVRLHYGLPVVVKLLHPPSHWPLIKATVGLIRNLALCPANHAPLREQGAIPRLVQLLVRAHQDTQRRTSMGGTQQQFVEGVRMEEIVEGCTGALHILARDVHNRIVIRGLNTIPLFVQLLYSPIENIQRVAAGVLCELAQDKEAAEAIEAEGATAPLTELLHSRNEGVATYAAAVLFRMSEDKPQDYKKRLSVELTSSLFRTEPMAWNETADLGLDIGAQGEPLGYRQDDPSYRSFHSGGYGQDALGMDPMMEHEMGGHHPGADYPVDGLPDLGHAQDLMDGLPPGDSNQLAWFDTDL
Description: fluorescence polarization competition; full-length beta-catenin, competitor 5FAM-TCF4(10-53) probe. In outline: (§1)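 Plate incubated 60 minutes at 20° C. protected from light before reading. Concentrations given are final.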

Assay [2] deals with T2, full-length beta-Catenin (Uniprot ID P35222) (Homo sapiens (Human), UniProt P35222 1-781).
T2 construct: The assay text says full-length beta-Catenin (Uniprot ID P35222); also called bCat; B-Catenin
T2 sequence: T1 sequence
Put plainly: fluorescence polarization competition; full-length beta-catenin with 5FAM-labeled TCF4 (residues 10-53) probe as competitor. As to the method: The plate was incubated protected from light for 60 minutes at 20° C. prior to read. Reads were performed on a CLARIOstar plate reader (BMG Labtech) in duplicate, and data were fitted to a 1:1 binding model with hill slope using an in-house script. All provided concentrations are final concentrations.
(In general: In fluorescence polarisation assays a small probe gives low polarisation when free and higher when bound to something large.)

For assay [3], the target named is T3, full-length beta-Catenin (Uniprot ID P35222) (Homo sapiens (Human), UniProt P35222 1-781).
T3 construct: The assay protocol says 'full-length beta-Catenin (Uniprot ID P35222)'; also called bCat; B-Catenin
T3 sequence: T1 sequence
Description: fluorescence polarization competition; full-length beta-catenin, competitor 5FAM-TCF4(10-53) probe. The essentials: as §1

Broadly, the IC50 is the midpoint of a concentration-inhibition curve. A low value points to greater potency. As for Ac-[αAllylPro]DI[B5(19)]DEAQFQ[S8]F[Bta]Q-NH2 (staple 1-4, 4-11, Stapled peptide) [I-663], in assay [1], the IC50 amounted to 43 nM.

B1: I-659 (peptide)
peptide: XDIXDEALFQXFXQ
modifications: not fully specified; Ac-PL3-Asp-Ile-B5-Asp-Glu-Ala-Leu-Phe-Gln-S8-Phe-BztA-Gln-NH2; N-terminal acetyl, C-terminal amide; PL3(1), B5(4), S8(11) stapled by olefin metathesis (1-4 and 4-11); BztA at 13
notes: Stapled peptide
In assay [1], B1 had an IC50 of 430 nM.

In turn, Ac-[αAllylPro]DI[B5(9)]DEAWFQ[S8]F[Bta]Q-NH2 (staple 1-4, 4-11, Stapled peptide) [I-664] displayed an IC50 in assay [1] of 996 nM.

B2: I-661 (peptide)
peptide: XDIXDEASFQXFXQ
modifications: not fully specified; Ac-PL3-Asp-Ile-B5-Asp-Glu-Ala-Ser-Phe-Gln-S8-Phe-BztA-Gln-NH2; N-terminal acetyl, C-terminal amide; PL3(1), B5(4), S8(11) stapled by olefin metathesis (1-4 and 4-11); BztA at 13
notes: Stapled peptide
As for B2, the IC50 in assay [1] came to 45 nM.

B3: I-658 (peptide)
peptide: XDIXDEALFQXFXQ
modifications: not fully specified; Ac-PL3-Asp-Ile-B5-Asp-Glu-Ala-Leu-Phe-Gln-S8-Phe-BztA-Gln-NH2; N-terminal acetyl, C-terminal amide; PL3(1), B5(4), S8(11) stapled by olefin metathesis (1-4 and 4-11); BztA at 13
notes: Stapled peptide
As for B3, in assay [1], the IC50 worked out at 546 nM. In assay [1], Ac-[αAllylPro]DI[B5(9)]DEAWFQ[S8]F[Bta]Q-NH2 (staple 1-4, 4-11, Stapled peptide) [I-665] displayed an IC50 of 923 nM. In turn, Ac-[αAllylPro]DI[B5(16)]DESAFQ[S8]F[Bta]Q-NH2 (staple 1-4, 4-11, Stapled peptide) [I-652] showed an IC50 in assay [1] of 72 nM. Consider Ac-[αAllylPro]DI[B5(16)]DEWAFQ[S8]F[Bta]Q-NH2 (staple 1-4, 4-11, Stapled peptide) [I-655], for which the IC50 in assay [1] amounted to 183 nM.

B4: I-391 (peptide)
peptide: Ac-[αAllylPro]DA[B5(9)]DEAA[23FF]V[S8]F[Bta]Q-NH2
modifications: staple 1-4, 4-11; also: later eluting HPLC isomer, E/Z not assigned
notes: Stapled peptide; also called Ac-PL3-Asp-Ala-B5-Asp-Glu-Ala-Ala-23FF-Val-S8-Phe-BztA-Gln-NH2
On to B4, for which the IC50 in assay [2] was 1910 nM.

B5: I-394 (peptide)
peptide: Ac-[αAllylPro]DA[B5(9)]DEAAFV[S8][Phe(3,5-F2)][Bta]Q-NH2
modifications: staple 1-4, 4-11
notes: Stapled peptide; also called Ac-PL3-Asp-Ala-B5-Asp-Glu-Ala-Ala-Phe-Val-S8-35FF-BztA-Gln-NH2
In assay [2], B5 displayed an IC50 of 5000 nM. As to Ac-[αAllylPro]DI[B5(5)][d(βAsp)]EAAFQ[S8]F[Bta]Q-NH2 (staple 1-4, 4-11, Stapled peptide) [I-674], the half-maximal inhibitory concentration (IC50) in assay [1] came out at 5000 nM.

B6: I-389 (peptide)
peptide: Ac-[αAllylPro]DA[B5(9)]DEAAFV[S8][23FF][Bta]Q-NH2
modifications: staple 1-4, 4-11; also: later eluting HPLC isomer, E/Z not assigned
notes: Stapled peptide; also called Ac-PL3-Asp-Ala-B5-Asp-Glu-Ala-Ala-Phe-Val-S8-23FF-BztA-Gln-NH2
In assay [2], B6 had an IC50 of 5000 nM.

B7: I-180 (peptide)
peptide: XDIXDEAAFQXFWQ
modifications: not fully specified; N-terminal acetyl (Ac); PL3 at 1, B5 at 4, S8 at 11 (staples PL3-B5 and B5-S8 by olefin metathesis); C-terminal amide (NH2)
notes: also called Ac-PL3-Asp-Ile-B5-Asp-Glu-Ala-Ala-Phe-Gln-S8-Phe-Trp-Gln-NH2
In the case of B7, in assay [3], the half-inhibitory concentration (IC50) is 56 nM. In the case of Ac-[αAllylPro]DI[B5(9)][βAsp]EAAFQ[S8]F[Bta]Q-NH2 (staple 1-4, 4-11, Stapled peptide) [I-673], in assay [1], the IC50 is 5000 nM.

In the case of Ac-[αAllylPro][d(βAsp)]I[B5(9)]DEAAFQ[S8]F[Bta]Q-NH2 (staple 1-4, 4-11, Stapled peptide) [I-669], the IC50 in assay [1] is 451 nM.
